Laboratory results reported in patent US20230073274A1 (NOVELMED THERAPEUTICS, published 2023).
Substitutions are numbered along the chain they refer to.

B1: NMT18 (antibody, V domains shown)
VH: EVQLVQSGAEVKKPGASVKVSCKASGYIFTNYPIHWVRQAPGQGLEWMGFIDPGGGYDEPDERFRDRVTMTADTSTSTAYMELSSLRSEDTAVYYCARRGGGYYLDYWGQGTTVTVSS
VL: DIQMTQSPSSLSASVGDRVTITCRASQDISFFLNWYQQKPGKAPKLLIYYTSRYHSGVPSRFSGSGSGTDFTLTISSLQPEDFATYYCQHGQTLPWTFGQGTKLEIK
B2: NMT17 (antibody, V domains shown)
VH: B1 VH
VL: B1 VL with Q92S
B3: NMT20 (antibody, V domains shown)
VH: B1 VH
VL: B1 VL with Q92S, W96Y
B4: NMT21 (antibody, V domains shown)
VH: B1 VH with P60Y, D61A, E62Q, R63K, R65Q, D66G, M70L, V114L
VL: B1 VL
B5: NMT16 (antibody, V domains shown)
VH: B1 VH
VL: B1 VL with Q92N
B6: NMT18-101 (antibody, V domains shown)
VH: B1 VH
VL: B1 VL
B7: NMT18-100 (antibody, V domains shown)
VH: B1 VH
VL: B1 VL
B8: NMT28-101 (antibody, V domains shown)
VH: B1 VH with T113L
VL: B1 VL with L104V
B9: NMT17-101 (antibody, V domains shown)
VH: B1 VH
VL: B1 VL with Q92S
B10: NMT17-100 (antibody, V domains shown)
VH: B1 VH
VL: B1 VL with Q92S
B11: NMT28-100 (antibody, V domains shown)
VH: B1 VH with T113L
VL: B1 VL with L104V
B12: NMT22 (antibody, V domains shown)
VH: B1 VH with P60S, D61A, E62Q, R63K, D66G, M70L, A79V, V114L
VL: B1 VL with Q92S, W96Y
B13: NMT19 (antibody, V domains shown)
VH: B1 VH with Y27H, Y57H
VL: B1 VL
B14: NMT28 (antibody, V domains shown)
VH: B1 VH with T113L
VL: B1 VL with L104V
B15: NMT30-100 (antibody, V domains shown)
VH: EVTLKESGPTLVKPTQTLTLTCTFSGFSLSTSGMGVGWIRQPPGKALEWLAHIWWDDVKSYNPALKSRLTITKDTSKNQVVLTITNVDPVDTATYYCARIGDGYYSFDYWGQGTTLTVSS
VL: DIQMTQSPSSLSASVGDRVTITCRASQDVSDAVAWFQQKPGKAPKLLIYSPSYRYTGVPSRFSGSGSGTDFTFTISSLQPEDFATYYCQQHYSTPWTFGQGTKLEIK
B16: NMT31-100 (antibody, V domains shown)
VH: B15 VH with I84M, V87M, L116V
VL: B15 VL with F83L
B17: NMT31-101 (antibody, V domains shown)
VH: B15 VH with I84M, V87M, L116V
VL: B15 VL with F83L
B18: NMT30-101 (antibody, V domains shown)
VH: B15 VH
VL: B15 VL
B19: NMT24 (antibody, V domains shown)
VH: EVQLVQSGAEVKKPGASVKVSCKASGYIFTNYPIHWVRQAPGKGLEWMGFIDPGGGHDEYADSVKGRVTMTRDTSTSTVYMELSSLRSEDTAVYYCARRGGGYYLDYWGQGTLVTVSS
VL: B1 VL with Y50G, T51A, R53S, W96R, L104V
B20: NMT23 (antibody, V domains shown)
VH: B19 VH
VL: B1 VL with Q92S, L104V
B21: NMT26 (antibody, V domains shown)
VH: EVQLVESGGGLVQPGRSLRLSCAASGYIFTNYPIHWVRQAPGKGLEWVSFIDPGGGHIDYADSVEGRFTISRDNAKNSLYLQMNSLRAEDTAVYYCAKRGGGYYLDYWGQGTLVTVSS
VL: B1 VL with F83V, Q92S, W96Y, L104V
B22: NMT27 (antibody, V domains shown)
VH: B1 VH with Q43K, A72R, A79V, T113L
VL: B1 VL with Q92S, W96R, L104V

Biological target: T1, human properdin (human, UniProt P27918 28-469)
Assay: cell-based or functional assay

T1 sequence (P27918 28-469 limits assumed): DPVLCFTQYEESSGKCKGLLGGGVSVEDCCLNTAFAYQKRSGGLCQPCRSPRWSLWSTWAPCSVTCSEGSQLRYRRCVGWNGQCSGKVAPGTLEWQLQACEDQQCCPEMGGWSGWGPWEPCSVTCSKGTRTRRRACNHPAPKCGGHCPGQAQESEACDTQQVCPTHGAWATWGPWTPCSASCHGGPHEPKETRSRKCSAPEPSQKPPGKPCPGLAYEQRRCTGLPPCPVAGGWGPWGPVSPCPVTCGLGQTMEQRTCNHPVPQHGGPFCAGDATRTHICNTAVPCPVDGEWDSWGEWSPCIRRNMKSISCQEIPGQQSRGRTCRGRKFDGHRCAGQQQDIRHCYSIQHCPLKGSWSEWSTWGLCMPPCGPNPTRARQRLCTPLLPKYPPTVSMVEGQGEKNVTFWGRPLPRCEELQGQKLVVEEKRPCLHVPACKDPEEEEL

Binder	MAC (µg/Ml); inhibition of MAC formation [µg/mL]	Properdin (µg/mL); inhibition of properdin deposition [µg/mL]
B1	9	3
B2	5	4
B3	25	30
B4	8	8
B5	3	4

Biological target: T1, human properdin
Assay: cell-based or functional assay
Remark: another data set of the same source

Binder	C3b (µg/mL); inhibition of AP mediated C3b formation and deposition [µg/mL]	MAC (µg/mL); inhibition of MAC formation [µg/mL]
B6	1	3
B7	1	1
B8	1	3
B9	1	1
B10	1	1
B11	1	3

Biological target: T1, human properdin
Assay: cell-based or functional assay
Remark: another data set of the same source

Binder	IC50 (read off the curve): properdin deposition (AP activation on LPS, 10% normal human serum) [µg/mL]
B1	~0.9
B2	~0.9
B5	~1

Biological target: T1, human properdin
Assay: cell-based or functional assay
Remark: another data set of the same source

Binder	IC50 (read off the curve): properdin deposition (AP activation on LPS, 10% normal human serum) [µg/mL]
B12	~9
B3	~1
B13	~10
B4	~1

Biological target: T1, human properdin
Assay: cell-based or functional assay
Remark: another data set of the same source

Binder	IC50 (read off the curve): C3b deposition (AP activation on LPS, normal human serum) [µg/mL]
B1	~0.5
B2	~0.7
B3	~0.8
B4	~0.5

Biological target: T1, human properdin
Assay: cell-based or functional assay
Remark: another data set of the same source

Binder	IC50 (read off the curve): C3b deposition (AP C3 convertase formation assay) [µg/mL]	IC50 (read off the curve): properdin deposition (AP C3 convertase formation assay) [µg/mL]
B14	~0.3	~0.3

Biological target: T1, human properdin
Assay: cell-based or functional assay
Remark: another data set of the same source

Binder	IC50 (read off the curve): C3b deposition (sheet title: LPS C3b 10% NHS) [µg/mL]
B6	~0.5
B7	~0.5
B8	~0.5
B9	~0.5
B10	~0.4
B11	~0.5

Biological target: T1, human properdin
Assay: cell-based or functional assay
Remark: another data set of the same source

Binder	IC50 (read off the curve): C3b deposition (sheet title: LPS C3b 10% NHS) [µg/mL]
B15	~0.6
B16	~0.5
B17	~0.5
B18	~0.6

Biological target: T1, human properdin
Assay: ELISA, human properdin coated on plate
Protocol: (§1) Polystyrene microtiter plates were coated with human (2.0 μg/50 μl per well) properdin in phosphate buffered saline (PBS) overnight at 4° C. After aspirating the properdin solution, the wells were blocked with PBS containing 1% bovine serum albumin (BSA) (Sigma-Aldrich, St. Louis, Mo.) for 2 hours at room temperature. Wells without peptide or properdin coating served as background controls. Aliquots of the test antibody in blocking solution were added to the properdin coated wells and allowed to incubate for 1 hour to allow binding to occur. Following a 1 hour incubation at room temperature, the plate was rinsed with PBS five times and incubated with 1:2000 diluted anti-properdin polyclonal antibody.

Binder	Binding Affinity [pM]
B1	289
B12	335
B2	283
B3	297
B13	486
B4	353
B5	315

Biological target: T1, human properdin
Assay: ELISA, properdin coated on the plate, OD 450 nm

Binder	binding result	EC50 (read off the curve) [nM]
B19	no binding (tested: about 13 nM)	–
B20	–	~0.2
B21	no binding (tested: about 13 nM)	–
B22	binds	–
B14	–	~0.06

Biological target: T1, human properdin
Assay: ELISA, properdin coated on the plate, OD 450 nm
Remark: another data set of the same source

Binder	EC50 (read off the curve) [nM]
B6	~0.6
B7	0.3 to 0.4
B8	~0.4
B9	~0.5
B10	~0.3
B11	0.3 to 0.4

Biological target: T1, human properdin
Assay: properdin binding assay (method of Example 8, not restated)

Binder	Affinity [pM]
B6	590
B7	322
B8	425
B9	499
B10	263
B11	318

Biological target: T1, human properdin
Assay: ELISA, human properdin coated on the plate, OD 450 nm
Protocol: as §1

Binder	EC50 (read off the curve) [nM]
B1	~0.3
B12	0.3 to 0.4
B2	~0.3
B3	~0.3
B13	~0.5
B4	0.3 to 0.4
B5	0.3 to 0.4
